T1: PCPE-1 (Procollagen C-proteinase enhancer-1) glycoprotein, human (human, UniProt Q15113 26-449)
T1 construct: mature; Secreted recombinant protein; also called purified human PCPE-1
T1 sequence (looked up): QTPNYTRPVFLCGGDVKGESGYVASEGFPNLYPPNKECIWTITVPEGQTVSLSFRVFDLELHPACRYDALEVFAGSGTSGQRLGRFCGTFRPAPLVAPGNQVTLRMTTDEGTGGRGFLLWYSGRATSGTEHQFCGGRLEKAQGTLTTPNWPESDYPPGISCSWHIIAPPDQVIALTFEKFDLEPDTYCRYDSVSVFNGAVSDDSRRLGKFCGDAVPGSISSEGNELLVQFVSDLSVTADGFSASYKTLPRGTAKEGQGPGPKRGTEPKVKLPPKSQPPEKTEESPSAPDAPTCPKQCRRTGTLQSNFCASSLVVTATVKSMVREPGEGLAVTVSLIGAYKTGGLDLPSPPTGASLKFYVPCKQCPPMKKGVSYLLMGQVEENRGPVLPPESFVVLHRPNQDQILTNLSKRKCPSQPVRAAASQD

T2: PCPE-2 (with a 6-his N-terminal tag) (UniProt Q9UKZ9 24-415)
T2 construct: not shown: N-terminal 6-His tag
T2 sequence (looked up): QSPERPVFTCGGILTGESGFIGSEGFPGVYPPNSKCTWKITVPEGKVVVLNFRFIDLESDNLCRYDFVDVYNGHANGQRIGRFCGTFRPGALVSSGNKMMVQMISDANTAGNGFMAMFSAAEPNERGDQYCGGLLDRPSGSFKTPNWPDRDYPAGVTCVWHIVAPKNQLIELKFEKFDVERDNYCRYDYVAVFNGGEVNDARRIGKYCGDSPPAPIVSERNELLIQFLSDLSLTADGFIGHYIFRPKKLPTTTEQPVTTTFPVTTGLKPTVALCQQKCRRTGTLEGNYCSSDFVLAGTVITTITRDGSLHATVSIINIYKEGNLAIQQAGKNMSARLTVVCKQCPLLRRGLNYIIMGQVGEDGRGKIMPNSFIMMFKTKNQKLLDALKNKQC

T3: CUB2 domain of PCPE-1 (human, UniProt Q15113 159-273)
T3 construct: domain: CUB2
T3 sequence (looked up): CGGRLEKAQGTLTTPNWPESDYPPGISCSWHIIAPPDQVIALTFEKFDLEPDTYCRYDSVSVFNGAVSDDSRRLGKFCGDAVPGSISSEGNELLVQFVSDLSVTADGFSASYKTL

T4: CUB1 domain of PCPE-1 (human, UniProt Q15113 37-149)
T4 construct: domain: CUB1
T4 sequence (looked up): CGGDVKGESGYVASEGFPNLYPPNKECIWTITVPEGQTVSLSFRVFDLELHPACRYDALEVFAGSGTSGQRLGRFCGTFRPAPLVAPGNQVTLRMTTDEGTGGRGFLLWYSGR


How the values were obtained:
[1] = target: T1, PCPE-1 (Procollagen C-proteinase …); experiment: SPR, biotinylated VHH on streptavidin chip; reference PCPE-2
Procedure: (§1) FIG. 2D: VHHs […] is biotinylated and immobilized on a streptavidin chip (813 RU), then increasing concentrations of PCPE-1 (black) or PCPE-2 (grey) are injected.
(§2) FIG. 2E: VHH H4 is biotinylated and immobilized on a streptavidin chip (491 RU), then increasing concentrations of PCPE-1 or PCPE-2 are injected. [0038] D, E: Interactions are modeled (dotted line) using the Langmuir model (Biacore T200 Evaluation software, Cytiva)
(§3) PCPE-2 is a protein in the same family as PCPE-1, with a 43% identical amino acid sequence. It shares certain activities with PCPE-1, but also has very different specific functions. The specificity of nanobody interaction for PCPE-1 versus PCPE-2 was analyzed by SPR. To achieve this, VHH-I5 and VHH-H4 were biotinylated at their C-terminus using sortase, then immobilized on a streptavidin surface. […] The affinity of VHH-I5 and -H4 for PCPE-1 is therefore at least 250 times greater than for PCPE-2.

[2] = target: T2, PCPE-2 (with a 6-his N-terminal tag); experiment: SPR, biotinylated VHH on streptavidin chip, PCPE-2 injected
Procedure: as §1, §2, §3

[3] = target: T1, PCPE-1 (Procollagen C-proteinase …); experiment: SPR, biotinylated VHH on streptavidin chip, PCPE-1 injected, 1:1 binding model
Procedure: as §1, §2, §3

[4] = target: T1, PCPE-1 (Procollagen C-proteinase …); experiment: SPR, VHH injected on immobilized PCPE-1
[5] = target: T1, PCPE-1 (Procollagen C-proteinase …); experiment: SPR competition: PCPE-1 (5 nM) co-injected with VHH on immobilized Mini III; VHH-I5 alone, 5 nM PCPE-1
Procedure: (§4) Surface plasmon resonance (SPR) experiments were carried out on a Biacore T200 (Cytiva). The ligand proteins, in solution in 10 mM HEPES pH 7.4 buffer for PCPE-1 or 10 mM sodium acetate pH 4.5 buffer for mini-procollagen III and streptavidin, are immobilized on CM5 chips by amine coupling. Analytes are diluted in running buffer (10 mM HEPES pH 7.4, 0.15 M NaCl, 5 mM CaCl₂), 0.05% P20) and injected at a flow rate of 30 or 50 μL/min. Competition, epitope binning and kinetics experiments were all carried out at 25° C. Regeneration was achieved by successive injection of 2 M guanidine chloride and 0.5 M EDTA for 30 sec. Sensorgrams were analyzed with Biacore T200 Evaluation v3.2.1 (Cytiva), using the most suitable models. IC50 was determined by non-linear regression using GraphPad Prism (v8.2.1).
(§5) What is more, their antagonistic effects are additive, and co-injection of a mixture of VHH-I5 and VHH-H4 with PCPE-1 virtually eliminates its interaction with Mini III.

[6] = target: T1, PCPE-1 (Procollagen C-proteinase …); experiment: SPR competition: PCPE-1 (5 nM) co-injected with VHH on immobilized Mini III; VHH-H4 alone, 5 nM PCPE-1
Procedure: as §4, §5

[7] = target: T3, CUB2 domain of PCPE-1; experiment: SPR competition: VHH (50 nM) co-injected with the soluble CUB2 domain (250 nM) over immobilized PCPE-1
[8] = target: T4, CUB1 domain of PCPE-1; experiment: SPR competition: VHH (50 nM) co-injected with the soluble CUB1 domain (250 nM) over immobilized PCPE-1

Row | Kd [4] | Binder | further results
1 |  | VHH-I5 biotinylated at its C-terminus using sortase (VHH, C-terminal biotin (GGGK-biotin ligated by Sortase A at the LPETG site), pHEN vector with LPETG and 6-His; Captured on streptavidin; also called biotinylated VHH-I5; not shown: GGGK-biotin ligated by Sortase A in place of the 6-His label) VHH: QVQLVESGGGLVQPGGFLRLLCTASGNIFSSNTMGWYRRAPGKQREWVASISKGGSTNYADSVKDRFTISRSITKNTVYLQMVNLKPEDTAVYYCNPVPDSDNYASGQGTQVTVSS | fold affinity for PCPE-1 over PCPE-2 [1]: ≥ 250 fold; Kd [2]: > 1000 nM; Kd [3]: 1.45 nM; koff [3]: 0.00136 s⁻¹; kon [3]: 937000 M⁻¹ s⁻¹
2 | 7.2 nM | VHH-I5 (VHH, Llama nanobody, pHEN6 vector, pelB signal, produced in E. coli periplasm; also called nanobody-I5; 15; not shown: C-terminal 6-His tag) VHH: QVQLVESGGGLVQPGGFLRLLCTASGNIFSSNTMGWYRRAPGKQREWVASISKGGSTNYADSVKDRFTISRSITKNTVYLQMVNLKPEDTAVYYCNPVPDSDNYASGQGTQVTVSS | IC50 [5]: ~24 nM
3 | > 250 nM | VHH-H3 (VHH, Synthetic nanobody (hsd2ab library), pET29b(+) vector, pelB signal; not shown: C-terminal 6-His tag) VHH: EVQLQASGGGFVQPGGSLRLSCAASGATYWFSSMGWFRQAPGKEREFVSAISYWFDDIEYYADSVKGRFTISRDNSKNTVYLQMNSLRAEDTATYYCAMWNEQTGEEYWGQGTQVTVSS | 
4 | 12.8 nM | VHH-I7 (VHH, Llama nanobody, pHEN6 vector, pelB signal, produced in E. coli periplasm; also called nanobody I7; 17; not shown: C-terminal 6-His tag) VHH: QVQLVESGGGLVPPGGSLKLSCTASGSIFSSNVMGWYRRAPGKQREWVASISRGGGTNYPDSVKGRFTVSRDIAKNTVYLQISSLKPEDTAVYYCNPIPYSGDYVSGQGTQVTVSS | 
5 | > 250 nM | VHH-H1 (VHH, Synthetic nanobody (hsd2ab library), pET29b(+) vector, pelB signal; not shown: C-terminal 6-His tag) VHH: EVQLQASGGGFVQPGGSLRLSCAASGRTWSFYAMGWFRQAPGKEREFVSAISWNGGGEHYYADSVKGRFTISRDNSKNTVYLQMNSLRAEDTATYYCAHMEFSQSDYIISKWIYWGQGTQVTVSS | 
6 | 30 nM | VHH-H4 (VHH, Synthetic nanobody (hsd2ab library), pET29b(+) vector, pelB signal; also called nanobody-H4; not shown: C-terminal 6-His tag) VHH: EVQLQASGGGFVQPGGSLRLSCAASGFTSEISNMGWFRQAPGKEREFVSAISGTHTTQTYYADSVKGRFTISRDNSKNTVYLQMNSLRAEDTATYYCAAEQDMSDLWLGSYWGQGTQVTVSS | IC50 [6]: ~45 nM; binding result [7]: no binding (tested: 250 nM)
7 |  | VHH-H4 biotinylated at its C-terminus using sortase (VHH, C-terminal biotin (GGGK-biotin ligated by Sortase A at the LPETG site), pHEN vector with LPETG and 6-His; Captured on streptavidin; also called biotinylated VHH-H4; biotinylated H4 nanobody; not shown: GGGK-biotin ligated by Sortase A in place of the 6-His label) VHH: EVQLQASGGGFVQPGGSLRLSCAASGFTSEISNMGWFRQAPGKEREFVSAISGTHTTQTYYADSVKGRFTISRDNSKNTVYLQMNSLRAEDTATYYCAAEQDMSDLWLGSYWGQGTQVTVSS | fold affinity for PCPE-1 over PCPE-2 [1]: ≥ 250 fold; Kd [2]: > 1000 nM; Kd [3]: 3.88 nM; koff [3]: 0.0195 s⁻¹; kon [3]: 5.04e+06 M⁻¹ s⁻¹
8 | 18 nM | VHH-H10 (VHH, Synthetic nanobody (hsd2ab library), pET29b(+) vector, pelB signal; not shown: C-terminal 6-His tag) VHH: EVQLQASGGGFVQPGGSLRLSCAASGYGWWIYEMGWFRQAPGKEREFVSAISWADGTRTYYADSVKGRFTISRDNSKNTVYLQMNSLRAEDTATYYCAIYILEGTQGVPIYWGQGTQVTVSS | binding result [7]: no binding (tested: 250 nM)
9 | 152 nM | VHH-H7 (VHH, Synthetic nanobody (hsd2ab library), pET29b(+) vector, pelB signal; not shown: C-terminal 6-His tag) VHH: EVQLQASGGGFVQPGGSLRLSCAASGYYFRGEDMGWFRQAPGKEREFVSAISDDSTATIYYADSVKGRFTISRDNSKNTVYLQMNSLRAEDTATYYCAPGWYIYLDWSESGSAYWGQGTQVTVSS | 
10 | > 250 nM | VHH-I4 (VHH, Llama nanobody, pHEN6 vector, pelB signal, produced in E. coli periplasm; also called nanobody I4; not shown: C-terminal 6-His tag) VHH: QVQLVESGGGSVAAGESLTLSCRMSGSTSSIQAMGWYRRAPGNQREWLATISPRGNTNYADSVKGRFTISRDNAKNTVYLQMNSLKPADTAVYYCNTVPSGGIPWGQGTQVTVSS | 
11 | > 250 nM | VHH-H6 (VHH, Synthetic nanobody (hsd2ab library), pET29b(+) vector, pelB signal; not shown: C-terminal 6-His tag) VHH: EVQLQASGGGFVQPGGSLRLSCAASGFTSARYNMGWFRQAPGKEREFVSAISRHTDRQTYYADSVKGRFTISRDNSKNTVYLQMNSLRAEDTATYYCAVGMMPKQKQYWGQGTQVTVSS | 
12 | > 250 nM | VHH-H9 (VHH, Synthetic nanobody (hsd2ab library), pET29b(+) vector, pelB signal; not shown: C-terminal 6-His tag) VHH: EVQLQASGGGFVQPGGSLRLSCAASGDTFNLTTMGWFRQAPGKEREFVSAISSSNTHIAYYADSVKGRFTISRDNSKNTVYLQMNSLRAEDTATYYCAYTYYGKNGKGMVYWGQGTQVTVSS | 
13 | 154 nM | VHH-I2 (VHH, Llama nanobody, pHEN6 vector, pelB signal, produced in E. coli periplasm; also called nanobody I2; not shown: C-terminal 6-His tag) VHH: QVQLVESGGGWVQPGGSLRLSCAASGITFSTKTMGWYRQRPGKRREWIGSISPTGFTNYADAVKGRVTISRDNGENTVYLQMNSLKPEDTAVYFCNGVPPVIIDGQSVAYWGQGTQVTVSS | 
14 | > 250 nM | VHH-H8 (VHH, Synthetic nanobody (hsd2ab library), pET29b(+) vector, pelB signal; not shown: C-terminal 6-His tag) VHH: EVQLQASGGGFVQPGGSLRLSCAASGYTSDLTVMGWFRQAPGKEREFVSAISSHFGPPHYYADSVKGRFTISRDNSKNTVYLQMNSLRAEDTATYYCAMRERRHSWWYWGQGTQVTVSS | 
15 | > 250 nM | VHH-H2 (VHH, Synthetic nanobody (hsd2ab library), pET29b(+) vector, pelB signal; not shown: C-terminal 6-His tag) VHH: EVQLQASGGGFVQPGGSLRLSCAASGSTSRDEGMGWFRQAPGKEREFVSAISRDHGWREYYADSVKGRFTISRDNSKNTVYLQMNSLRAEDTATYYCAPVIIDTMEVIPLYWGQGTQVTVSS | 
16 | 161 nM | VHH-I11 (VHH, Llama nanobody, pHEN6 vector, pelB signal, produced in E. coli periplasm; also called nanobody I11; not shown: C-terminal 6-His tag) VHH: QVQLVESGGGTVQAGGSLRLSCTASGRGRNAMGWYRQVPGGKRELVASINRGGTTDYTDSVKDRFTISRDSAKNTVYLQMDSLQPEDTAVYYCNAESTVIPGHIYDYWGRGTQVTVSS | 
17 | 16 nM | VHH-I3 (VHH, Llama nanobody, pHEN6 vector, pelB signal, produced in E. coli periplasm; also called nanobody I3; 13; not shown: C-terminal 6-His tag) VHH: QVQLVESGGGLVEPGGSLRLSCAVSGSTFSMNVMGWYRQAPGKHREWVGSIGTGGGTNYPDSVKGRFTISRDNVKKTVYLQMNSLKPEDTAVYYCNKIPHNWGWGQGTQVTVSS | binding result [8]: no binding (tested: 250 nM)

Reference: patent US20250206813A1 (NVH MEDICINAL, published 2025)
